Results published in PMC11518995.

Molecular target: mTOR with the cancer-associated 1455-EWED-1458 duplication, as the mTOR subunit of mTORC1_EWEDdup (human) (UniProt P42345)
Assay: cryo-EM structure; mTORC1_EWEDdup co-expressed and purified as a complex; 1 uM with 20 uM 4EBP1 and 1 mM AMPPNP, cross-linked with 0.2 mM BS3 and 0.03% glutaraldehyde, glycerol gradient, Superose 6; 50 mM HEPES pH 7.5, 250 mM NaCl, 5 mM MgCl2, 1 mM TCEP

stoichiometry N: 2
Substance: mTOR with the cancer-associated 1455-EWED-1458 duplication, as the mTOR subunit of mTORC1_EWEDdup, P42345 1-2549
